Measurements from US20040229260.

What was measured:
[1] = target: protein encoded by the partial P43 cDNA clone
[2] = target: T1, polypeptide encoded by clone J2 (partial sequence of putative human N-acetylglucosamine-6-phosphate deacetylase)
T1 chain: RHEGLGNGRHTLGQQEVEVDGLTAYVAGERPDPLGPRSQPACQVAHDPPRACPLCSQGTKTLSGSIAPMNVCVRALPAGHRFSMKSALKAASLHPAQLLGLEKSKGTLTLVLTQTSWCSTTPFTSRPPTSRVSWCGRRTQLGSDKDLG

[3] = target: protein encoded by clone B11 (cDNA insert homologous to the C-terminal end of CTP-Phosphoenolamine cytidylyltransferase), Q99447
Chain of protein encoded by clone B11 (cDNA insert homologous to the C-terminal end of CTP-Phosphoenolamine cytidylyltransferase), Q99447 (Q99447 213-389): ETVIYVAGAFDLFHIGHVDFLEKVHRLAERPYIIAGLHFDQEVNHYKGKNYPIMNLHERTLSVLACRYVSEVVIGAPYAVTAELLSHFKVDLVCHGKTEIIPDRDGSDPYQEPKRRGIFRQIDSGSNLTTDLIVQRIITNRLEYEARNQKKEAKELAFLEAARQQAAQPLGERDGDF

[4] = target: T2, protein encoded by clone B33 (cDNA insert homologous to C-terminus of Nucleobindin), Q02818
T2 chain: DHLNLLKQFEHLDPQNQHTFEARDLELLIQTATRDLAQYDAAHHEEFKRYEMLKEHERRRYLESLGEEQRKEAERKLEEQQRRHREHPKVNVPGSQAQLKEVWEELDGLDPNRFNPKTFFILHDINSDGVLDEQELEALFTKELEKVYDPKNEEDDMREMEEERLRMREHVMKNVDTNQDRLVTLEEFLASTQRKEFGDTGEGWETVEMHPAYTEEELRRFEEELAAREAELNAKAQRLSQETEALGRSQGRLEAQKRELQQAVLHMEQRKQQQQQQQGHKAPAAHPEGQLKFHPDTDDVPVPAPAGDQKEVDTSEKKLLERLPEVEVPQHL

[5] = target: protein encoded by clone L12
[6] = target: T3, protein encoded by clone L20 (identical to amino acids 104-420 of NEFA), P80303
T3 chain: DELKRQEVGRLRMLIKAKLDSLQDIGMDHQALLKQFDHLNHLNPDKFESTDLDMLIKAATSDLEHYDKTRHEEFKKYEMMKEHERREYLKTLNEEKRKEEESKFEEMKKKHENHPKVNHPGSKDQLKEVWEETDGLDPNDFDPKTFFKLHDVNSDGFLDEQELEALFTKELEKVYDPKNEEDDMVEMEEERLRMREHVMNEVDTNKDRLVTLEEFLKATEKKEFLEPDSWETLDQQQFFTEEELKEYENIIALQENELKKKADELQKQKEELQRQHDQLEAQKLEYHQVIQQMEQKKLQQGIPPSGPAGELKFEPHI

[7] = target: T4, bacterially produced caspase-8 (in-vitro protease assay of Example 2.4), Q14790
T4 chain: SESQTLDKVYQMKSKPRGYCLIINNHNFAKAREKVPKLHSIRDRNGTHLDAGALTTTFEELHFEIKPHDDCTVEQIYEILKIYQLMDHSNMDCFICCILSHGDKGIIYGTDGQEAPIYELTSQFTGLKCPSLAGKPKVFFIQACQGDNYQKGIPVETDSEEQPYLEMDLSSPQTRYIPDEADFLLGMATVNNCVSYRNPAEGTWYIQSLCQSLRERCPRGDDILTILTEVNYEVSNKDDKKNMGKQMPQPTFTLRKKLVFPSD

B1: caspase 3 expressed in E. coli as Histidine tagged subunit 2-subunit 1 (S2-S1) fusion protein (protein)
chain: SGISLDNSYKMDYPEMGLCIIINNKNFHKSTGMTSRSGTDVDAANLRETFRNLKYEVRNKNDLTREEIVELMRDVSKEDHSKRSSFVCVLLSHGEEGIIFGTNGPVDLKKITNFFRGDRCRSLTGKPKLFIIQACRGTELDCGIETDSGVDDDMACHKIPVEADFLYAYSTAPGYYSWRNSKDGSWFIQSLCAMLKQYADKLEFMHILTRVNRKVATEFESFSFDATFHAKKQIPCIVSMLTKELYFYH
For B1, the “cleavage in the protease assay with bacterial lysate (1 or 4 RU)” value [1] was “it was not cleaved by caspase-3 nor by caspase-9”.

B2: bacterially produced caspase-8 (in-vitro protease assay of Example 2.4) (protein)
chain: SESQTLDKVYQMKSKPRGYCLIINNHNFAKAREKVPKLHSIRDRNGTHLDAGALTTTFEELHFEIKPHDDCTVEQIYEILKIYQLMDHSNMDCFICCILSHGDKGIIYGTDGQEAPIYELTSQFTGLKCPSLAGKPKVFFIQACQGDNYQKGIPVETDSEEQPYLEMDLSSPQTRYIPDEADFLLGMATVNNCVSYRNPAEGTWYIQSLCQSLRERCPRGDDILTILTEVNYEVSNKDDKKNMGKQMPQPTFTLRKKLVFPSD
For B2, the cleavage in vitro [2] was “The polypeptide encoded by Clone J2 is cleaved in-vitro by caspase-8”, the “cleavage in the in-vitro protease assay” value [3] was “Clone B11 was cleaved in-vitro by caspase-8 as demonstrated in the assay described in the above-mentioned Example 2.4” and the cleavage in vitro [4] was “Clone B33 was cleaved by caspase-8 both in-vitro and in-vivo”. For the same protein, the “cleavage in the in-vitro protease assay (35S labeled protein, SDS-PAGE, autoradiography)” value [5] was “Clone L12 is cleaved in-vitro by caspase-8 as shown by an in-vitro protease assay” and the cleavage in vitro [6] was “Clone L20 is cleaved by caspase 8 both in-vitro and in-vivo”.

B3: caspase 9 expressed in E. coli as Histidine tagged subunit 2-subunit 1 (S2-S1) fusion protein (protein)
chain: GALESLRGNADLAYILSMEPCGHCLIINNVNFCRESGLRTRTGSNIDCEKLRRRFSSLHFMVEVKGDLTAKKMVLALLELAQQDHGALDCCVVVILSHGCQASHLQFPGAVYGTDGCPVSVEKIVNIFNGTSCPSLGGKPKLFFIQACGGEQKDHGFEVASTSPEDESPGSNPEPDATPFQEGLRTFDQLDAISSLPTPSDIFVSYSTFPGFVSWRDPKSGSWYVETLDDIFEQWAHSEDLQSLLLRVANAVSVKGIYKQMPGCFNFLRKKLFFKTS
In the case of B3, the “cleavage in the protease assay with bacterial lysate (1 or 4 RU)” value [1] is reported as “it was not cleaved by caspase-3 nor by caspase-9”.

B4: protein encoded by clone L5 (Tip60, Tat interacting protein 60 kDa, lacking amino acids 94 to 145) (protein)
chain: MAEVGEIIEGCRLPVLRRNQDNEDEWPLAEILSVKDISGRKLFYVHYIDFNKRLDEWVTHERLDLKKIQFPKKEAKTPTKNGLPGSRPGSPEREVKRKVEVVSPATPVPSETAPASVFPQNGAARRAVAAQPGRKRKSNCLGTDEDSQDSSDGIPSAPRMTGSLVSDRSHDDIVTRMKNIECIELGRHRLKPWYFSPYPQELTTLPVLYLCEFCLKYGRSLKCLQRHLTKCDLRHPPGNEIYRKGTISFFEIDGRKNKSYSQNLCLLAKCFLDHKTLYYDTDPFLFYVMTEYDCKGFHIVGYFSKEKESTEDYNVACILTLPPYQRRGYGKLLIEFSYELSKVEGKTGTPEKPLSDLGLLSYRSYWSQTILEILMGLKSESGERPQITINEISEITSIKKEDVISTLQYLNLINYYKGQYILTLSEDIVDGHERAMLKRLLRIDSKCLHFTPKDWSKRGKW
For B4, the “cleavage in the in-vitro protease assay” value [7] was “Clone L5 was cleaved in-vitro by caspase-8 in the in-vitro protease assay described in Example 2.4”.
